Measured values published in PMC7504102.

Molecular target: StrepHA-SGFP2 (control)
Assay: co-IP; co-IP/HiBiT assay: SGFP2-fused proteins immunoprecipitated with anti-GFP pAb from HEK293 or HEK293 ALG-2KO lysates (with or without co-expressed FLAG-ALG-2); HKM, 1% Nonidet P-40, 10 mM NEM, 10 μM CaCl2; co-precipitated HiBiTHA-SARAF read by lytic HiBiT assay with LgBiT, normalised by …

B1: full-length HiBiTHA-SARAF (WT) (natural protein)
chain: WNDPDRMLLRDVKALTLHYDRYTTSRRLDPIPQLKCVGGTAGCDSYTPKVIQCQNKGWDGYDVQWECKTDLDIAYKFGKTVVSCEGYESSEDQYVLRGSCGLEYNLDYTELGLQKLKESGKQHGFASFSDYYYKWSSADSCNMSGLITIVVLLGIAFVVYKLFLSDGQYSPPPYSEYPPFSHRYQRFTNSAGPPPPGFKSEFTGPQNTGHGATSGFGSAFTGQQGYENSGPGFWTGLGTGGILGYLFGSNRAATPFSDSWYYPSYPPSYPGTWNRAYSPLHGGSGSYSVCSNSDTKTRTASGYGGTRRR
Work on B1 yielded a relative interaction activity (WT expressed as 100%) of under 0.3%.
